The values below come from patent US20060035245, “Modulators of enzymatic nucleic acid elements mobilization” (published 2006).

For this data set, the target named is Tn5 transposase hyperactive mutant (EK54, MA56, LP372) (UniProt Q46731 Q46731:1-476, E54K,M56A,L372P). Kind of data set: EMSA; complex assembly, inhibited by small molecules with IC50 3.5-46 uM. The following applies: chain copies: 2; label: fluorescein 5' end of transferred strand. (In general: Mobility shift assays separate free from complexed probe on a gel.)

Description: For FP analysis, 60 μL reactions were analyzed using the FP protocol on a Wallac Victor V plate reader and a 7% native polyacrylamide gel was used in gel shift assays. For compound screening and subsequent analysis, 1 μL of either DMSO or test compound (final concentration 80 μM) was added to the synapsis reactions. Compound screening was carried out using a Beckman Coulter Biomek FX in a 384 well format. […] IC₅₀ values were obtained by fitting inhibitor titration data (0, 0.01, 0.05, 0.1, 0.5, 2.5, 10, 20, 35, 50, 100, 200, 400, 800 μM) to an exponential decay.

B1: 60 bp Tn5 substrate for inhibitor verification (dsDNA)
DNA 1: GGCCACGACACGCTCCCGCGCTGTCTCTTATACACATCTTGAGTGAGTGAGCATGCATGT
DNA 2: ACATGCATGCTCACTCACTCAAGATGTGTATAAGAGACAGCGCGGGAGCGTGTCGTGGCC
On to B1, for which the binding result is listed as “binds”.
